Reference: the MegaScale stability set (Tsuboyama et al. 2023)

B1: 2K2A (parent)
chain: ELREAFRLYDKEGNGYISTDVMREILAELDETLSSEDLDAMIDEIDADGSGTVDFEEFMGVMT

Variants of: B1
Assay: folding stability dG (cDNA display proteolysis); higher = more stable
Settings: PBS, room temperature

Folding stability dG [kcal/mol], by site and new letter:
E24: K 2.6 | F 2.32 | Y 2.2 | P -0.167 | Q 2.48 | N 2.19 | L 2.55 | I 2.29 | G 2.08 | R 2.58 | V 2.23 | H 2.14 | M 2.52 | D 1.77 | S 2.3 | T 2.22 | W 2.31
I42: M 1.72 | P -0.739 | D -0.854 | E -0.498 | L 1.73 | K -0.287 | H -0.459 | N -0.359 | F 1.08 | G -0.688 | C 0.098 | A -0.231
A40: L 1.85 | E 1.51 | R 2.31 | V 1.69 | F 1.77 | C 1.93 | N 1.73 | W 1.6 | P -0.715 | G 1.34 | H 2.19 | D 1.4 | K 2.11 | I 1.77 | Q 1.8 | M 1.76 | S 1.73 | Y 1.71 | T 1.57
I25: V 1.31 | A 0.872 | Q -0.758 | L 1.82 | Y 0.879 | H -0.033 | F 1.53 | K 0.177 | T -0.61 | M 1.31 | W 0.943 | R 0 | C 0.786
L26: I 1.45 | M 1.27 | W 0.837 | C 0.479 | R -0.879 | Y 0.295 | A 0.083 | V 0.555 | F 1.04
D30: T 1.3 | H 2.08 | V 1.55 | K 1.45 | G 1.13 | F 2.19 | M 1.95 | P 0.553 | Y 2.36 | W 2.22 | A 1.28 | E 0.964 | I 1.81 | L 1.93 | C 1.97 | N 2.1 | S 1.4 | Q 1.38 | R 1.72
A27: H 1.94 | D 0.222 | L 2.06 | E 1.12 | M 2.03 | F 1.73 | C 1.47 | P -0.602 | T 1.6 | W 1.73 | V 1.59 | G 1.47 | R 2.25 | I 1.87 | Q 1.93 | K 2.21 | Y 1.75 | N 1.24 | S 1.87
T32: F 1.62 | S 1.99 | P 0.441 | V 0.877 | C 1.73 | M 1.52 | W 1.62 | G 1.67 | Q 1.57 | E 1.48 | Y 1.54 | D 1.42 | I 0.878 | L 1.46 | H 1.8 | R 1.74 | K 1.79 | N 1.86 | A 1.5
E36: D 1.89 | Y 1.81 | M 1.7 | C 1.85 | H 1.65 | T 1.82 | A 1.96 | N 1.66 | S 1.88 | K 1.81 | Q 1.82 | P 1.04 | I 1.53 | L 1.66 | V 1.69 | F 1.83 | G 1.54 | W 1.87 | R 1.82
L29: Y 1.92 | H 1.73 | M 2.15 | E 0.559 | W 2.15 | C 2.18 | G 0.955 | F 1.91 | K 1.52 | A 1.52 | T 1.15 | N 1.34 | D 0.372 | S 1.32 | Q 1.49 | I 1.64 | V 1.28 | R 2.12
E31: K 2.34 | A 2.24 | V 2.01
